Entries after “also recorded” stand apart in the source; their conditions may differ.
B1: p97: recombinant human melanotransferrin (p97), provided by Synapse Technologies (protein, UniProt P08582 20-709, looked up)
Melanotransferrin: GMEVRWCATSDPEQHKCGNMSEAFREAGIQPSLLCVRGTSADHCVQLIAAQEADAITLDGGAIYEAGKEHGLKPVVGEVYDQEVGTSYYAVAVVRRSSHVTIDTLKGVKSCHTGINRTVGWNVPVGYLVESGRLSVMGCDVLKAVSDYFGGSCVPGAGETSYSESLCRLCRGDSSGEGVCDKSPLERYYDYSGAFRCLAEGAGDVAFVKHSTVLENTDGKTLPSWGQALLSQDFELLCRDGSRADVTEWRQCHLARVPAHAVVVRADTDGGLIFRLLNEGQRLFSHEGSSFQMFSSEAYGQKDLLFKDSTSELVPIATQTYEAWLGHEYLHAMKGLLCDPNRLPPYLRWCVLSTPEIQKCGDMAVAFRRQRLKPEIQCVSAKSPQHCMERIQAEQVDAVTLSGEDIYTAGKTYGLVPAAGEHYAPEDSSNSYYVVAVVRRDSSHAFTLDELRGKRSCHAGFGSPAGWDVPVGALIQRGFIRPKDCDVLTAVSEFFNASCVPVNNPKNYPSSLCALCVGDEQGRNKCVGNSQERYYGYRGAFRCLVENAGDVAFVRHTTVFDNTNGHNSEPWAAELRSEDYELLCPNGARAEVSQFAACNLAQIPPHAVMVRPDTNIFTVYGLLDKAQDLFGDDHNKNGFKMFDSSNYHGQDLLFKDATVRAVPVGEKTTYRGWLGLDYVAALEGMSSQQC
B2: lactoferrin: lactoferrin (Lf), LRP ligand used as competitor (protein, UniProt P02788 20-710, looked up)
Lactotransferrin: GRRRSVQWCAVSQPEATKCFQWQRNMRKVRGPPVSCIKRDSPIQCIQAIAENRADAVTLDGGFIYEAGLAPYKLRPVAAEVYGTERQPRTHYYAVAVVKKGGSFQLNELQGLKSCHTGLRRTAGWNVPIGTLRPFLNWTGPPEPIEAAVARFFSASCVPGADKGQFPNLCRLCAGTGENKCAFSSQEPYFSYSGAFKCLRDGAGDVAFIRESTVFEDLSDEAERDEYELLCPDNTRKPVDKFKDCHLARVPSHAVVARSVNGKEDAIWNLLRQAQEKFGKDKSPKFQLFGSPSGQKDLLFKDSAIGFSRVPPRIDSGLYLGSGYFTAIQNLRKSEEEVAARRARVVWCAVGEQELRKCNQWSGLSEGSVTCSSASTTEDCIALVLKGEADAMSLDGGYVYTAGKCGLVPVLAENYKSQQSSDPDPNCVDRPVEGYLAVAVVRRSDTSLTWNSVKGKKSCHTAVDRTAGWNIPMGLLFNQTGSCKFDEYFSQSCAPGSDPRSNLCALCIGDEQGENKCVPNSNERYYGYTGAFRCLAENAGDVAFVKDVTVLQNTDGNNNEAWAKDLKLADFALLCLDGKRKPVTEARSCHLAMAPNHAVVSRMDKVERLKQVLLHQQAKFGRNGSDCPDKFCLFQSETKNLLFNDNTECLARLHGKTTYEKYLGPQYVAGITNLKKCSTSPLLEACEFLRK

How the values were obtained:
[1] = tested on: bovine brain capillary endothelial cell monolayers; assay: Competition of [125I]-p97 binding on bovine brain capillary endothelial cell monolayers; conditions: [125I]-p97 25 nM, 2 h at 4° C., competitor 7.5 micromolar (FIG. 3)
Procedure: FIG. 3. Binding of p97 on bovine brain capillary endothelial cell monolayers. Binding p97 was performed with BBCECs that were pre-incubated 2 hrs in Ringer-Hepes to avoid any interference from the astrocytes. For the binding experiments, cells were incubated for 2 h at 4° C. in Ringer/Hepes in the presence of [^125I]-p97 (25 nM) and 7.5 micromolar concentrations of cold-p97, transferrin or lactoferrin, respectively. At the end of the incubation, the filters were gently washed at 4° C. three times with 4 ml of cold-PBS. Then the associated radioactivity of endothelial cells was determined by removing the membrane of the culture insert and counting it in a gamma counter.
B. Binding studies of p97. Binding of p97 was performed with BBCECs and Rat Brain Endothelial Cells that were pre-incubated 2 hrs in Ringer/Hepes to avoid any interference from the astrocytes.
For the binding experiments, cells were incubated for 2 h at 4° C. in Ringer/Hepes in the presence of [^125I]-p97 (25 nM) and increasing concentrations of cold-p97 or high (7.5 micromolar) concentrations of transferrin or lactoferrin. At the end of the incubation, the filters were gently washed at 4° C. three times with 4 ml of cold-PBS. Then the associated radioactivity of endothelial cells was determined by removing the membrane of the culture insert and counting it in a gamma counter.

RBE4 cells = assay: Competition of [125I]-p97 binding on rat brain endothelial cells (RBE4); conditions: competitor 10 micromolar, 2 hrs at 4° C. (FIG. 4)
Procedure: FIG. 4. Binding of p97 on rat brain endothelial cells. Binding p97 was performed with RBE4 that were pre-incubated 2 hrs in Ringer-Hepes. For the binding experiments, cells in 24-well microplates were incubated for 2 h at 4° C. in Ringer/Hepes in the presence of [^125I]-p97 (25 nM) and 10 micromolar concentrations of cold-p97, transferrin or lactoferin, respectively. At the end of the incubation, the cells were gently washed at 4° C. three times with 4 ml of cold-PBS. RBE4 cells were then lysed with Triton X-100 and the associated radioactivity of with cell lysates was determined.
RBE4 cells were grown in monolayers in 24 wells plastic tissue culture flasks at 37° C. under 5% CO2 in minimum essential medium Alpha and Ham's F10 (1:1) supplemented with 10% heat inactivated fetal bovine serum. For p97 binding experiments, RBE4 cells were pre-incubated at 37° C. for 2 hrs in Ringer/Hepes. ^125I-p97 in 200 μl of Ringer/Hepes was added to RBE4 cells for 2 hrs at 4° C. in the presence or absence of high concentration of cold-p97, human holo-transferrin or human lactoferrin. After the incubation, the cells were washed 4 times with PBS and the ^125I-p97 associated with the cells was measured.

BBCEC monolayers = assay: Transcytosis across BBCEC monolayers (in vitro BBB model); type: cell-based, bovine; conditions: for Effect on transcytosis of 125I-p97: competitor 5 micromolar (FIG. 10a, 10b)
Text: FIG. 10 assesses the ability of several agents to interfere with p97 transyctosis. FIG. 10a, transcytosis of I125-P97 was compared in the presence of cold p97 (5 micromolar), Lf (5 micromolar), and Tf (5 micromolar). […] FIG. 10c, RAP, a known poly-peptide inhibitor of the LDL-Receptor family was applied to the cells (25 micrograms/ml).
FIG. 11 examines the accumulation and transcytosis of p97. FIG. 11a, of [^125I]-p97, [^125I]-BSA and [^125I]-holo-transferrin one hour after i.v. injection. The radioactivity in brain was compared between the three compounds. (n=3); FIG. 11b, Accumulation of p97 and transferrin into the mouse brain parenchyma. In situ brain perfusion was performed with human [^125I]-p97 or [^125I]-holo-transferrin at a final concentration of 10 nM via a catheter inserted in the right common carotid artery. The volume of distribution (VD) of [^125I]-proteins were obtained in the whole brain homogenate (white bars), in brain capillaries (solid bars) and in brain parenchyma (hatched bars) after isolation of the right hemisphere and capillary depletion. Results were obtained for p97 (n=10) and for holo-transferrin (n=6); FIG. 11c, Transcytosis of p97 across BBCEC monolayers. Transcytosis experiments were performed 37° C. (open circles) and 4° C. (closed circles) with BBCEC monolayers. [^125I]-p97 (1 mg/ml) was added to the upper side of the cell-covered filter. One representative experiment is shown (n=4); FIG. 11d, Preferential transport of p97 across the BBCEC monolayers. Apical-to-basal and basal-to-apical transport of [^125I]-p97 (25 nM) was measured for 2 hrs at 37° C. At the end of the experiment, [^125I]-p97 was assessed in the lower or upper chambers of each well by TCA precipitation (n=4).
FIG. 13 illustrates the transcytosis and accumulation of p97 and transferrin in BBCEC monolayers. FIG. 13a, Transcytosis experiments were performed at 37° C. (solid bars) or 4° C. (white bars). [^125I]-p97 or bovine [^125I]-holo-transferrin (1 mg/ml) was added to the upper side of the cell-covered filter. At the end of the experiment, radiolabelled proteins were measured in the lower chamber of each well by TCA precipitation (n=4). Controls were also performed at 37° C. with denatured [^125I]-p97 or bovine [^125I]-holo-transferrin boiled for 30 min (grey bars) (n=2); FIG. 13b, Biospecific interaction analysis was performed with native or boiled p97 for the indicated times. MAb L235 (5 μg) was immobilized on a sensor chip (SM5) using standard procedures incorporating NHS, EDC and ethanolamine. Native and boiled p97 (5 to 30 min) diluted at 1 mg/ml in Ringer/Hepes was cooled and injected into the BIAcore. The surface plasmon resonance response obtained for native p97 and boiled p97 was plotted (in relative units (RU)) as a function of time; FIG. 13c, The accumulation of both proteins into BBEC cells were also measured. Briefly, after incubation at 37° C. (solid bars) or 4° C. (white bars) with either [^125I]-protein, cells were washed four times with cold PBS. Accumulation of both denatured proteins (grey bars) was also measured at 37° C. Filters were then removed, and the radioactivity associated with the cells was quantified (n=3).
FIG. 14 illustrates the stability of p97 and integrity of the BBCEC monolayers following p97 transcytosis. FIG. 14a, Transcytosis experiments were performed at 37° C. and 4° C. by adding p97 (1 mg/ml) to the upper compartment. At the end of the experiment, 50 μl from each lower chamber was used for SDS-polyacrylamide gel electrophoresis. After electrophoresis, the gels were stained with Coomassie Blue. A standard curve was also made with known amounts of recombinant p97 (0-2 μg); FIG. 14b. The gels were dried and scanned to quantify the amount of intact p97 that crossed the BBCEC monolayers at 37° C. and 4° C. (n=3); FIG. 14c, Effect of p97 on sucrose permeability of BBCE cell monolayers co-cultured with astrocytes. […]

Row | Molecule | Inhibition of [125I]-p97 binding to BBCECs [1] | Inhibition of [125I]-p97 binding to RBE4 cells (RBE4 cells) | [125I]-p97 transport apical-to-basolateral relative to basolateral-to-apical (BBCEC monolayers; 25 nM, after 2 hrs at 37° C. (FIG. 11d)) | Temperature dependence of p97 transcytosis (BBCEC monolayers; 37° C. versus 4° C., apical to basolateral) | Transport from the apical to the basolateral surface of ECs compared with transferrin (BBCEC monolayers; 37° C., 1 mg/ml (FIG. 13a)) | Saturability of p97 transcytosis (BBCEC monolayers; FIG. 9) | Degradation of p97 after transcytosis (BBCEC monolayers; SDS-PAGE of lower compartment, 30-120 min (FIG. 14a)) | Effect of heat-denaturation on passage through BBCEC monolayers (BBCEC monolayers; boiled 30 min, 37° C. (FIG. 13a)) | Effect on transcytosis of 125I-p97 (BBCEC monolayers) | Membrane bound p97 transcytosed (BBCEC monolayers; in 10 minutes (FIG. 20)) | Total amount of intact p97 after transendothelial transcytosis (BBCEC monolayers; p97 1 mg/ml, gel densitometry (FIG. 14b))
1 | B1 | competitively inhibited | competitively inhibit | about 3 fold | significantly higher at 37 °C than at 4 °C; also recorded: dramatic reduction | much higher than for transferrin | saturable phenomenon | no apparent degradation | reduced the passage | successfully reduced | 80% | 35 μg/cm^2
2 | B2 | competitively inhibited | competitively inhibit | – | – | – | – | – | – | only the cold p97 successfully reduced | – | –

Reference: patent US7977317B2, “Compositions and methods for modulating blood-brain barrier transport” (Raptor Pharmaceutical Inc., priority 2001, dated 2011)
